How the values were obtained:
STAT1 = assay: Inhibition of IFN-γ-induced STAT phosphorylation in PANC-1 cells (western blot), STAT1; type: cell-based; conditions: PANC-1, 10 ng/ml IFN-γ 15 min, 10 μM protein 2 hrs
Method: PANC-1 Cells (KCLB, Seoul, South Korea) were treated with 10 ng/ml IFN-γ (R&D systems, Abingdon, UK) for 15 min and treated with either DMEM (vehicle) or 10 μM aMTD/SD-fused SOCS3 recombinant proteins for 2 hrs. The cells were lysed in RIPA lysis buffer (Biosesang, Seongnam, Korea) containing proteinase inhibitor cocktail (Roche, Indianapolis, Ind., USA), incubated for 15 min at 4° C., and centrifuged at 13,000 rpm for 10 min at 4° C. Equal amounts of lysates were separated on 10% SDS-PAGE gels and transferred to a nitrocellulose membrane. The membranes were blocked using 5% skim milk in TBST and for western blot analysis incubated with the following antibodies: anti-phospho-STAT1 (Cell Signaling Technology, USA) and anti-phospho-STAT3 (Cell Signaling Technology, USA), then HRP conjugated anti-rabbit secondary antibody (Santacruz).

TNF-α = assay: LPS/IFN-γ-induced cytokine secretion in peritoneal macrophages (cytometric bead array), TNF-α; type: cell-based, C3H/HeJ mice; conditions: 10 μM protein; IFN-γ and LPS
Method: Peritoneal macrophages were obtained from C3H/HeJ mice (Doo-Yeol Biotech Co. Ltd. Korea) Peritoneal macrophages were incubated with 10 μM SOCS3 recombinant proteins (1:HS3, 2:HM165S3, 3:HM165S3A and 4:HM165S3B, respectively) for 1 hr at 37° C. and then stimulated them with LPS (Lipopolysaccharide)(500 ng/ml) and/or IFN-γ (100 U/ml) without removing iCP-SOCS3 proteins for 3, 6, or 9 hrs. The culture media were collected, and the extracellular levels of cytokine (TNF-α, IL-6) were measured by a cytometric bead array (BD Pharmingen, San Diego, Calif., USA) according to the manufacturer's instructions.

RAW 264.7 cells = assay: Mechanism of aMTD-mediated uptake (EDTA, proteinase K, taxol, antimycin, temperature; flow cytometry); type: cell-based; conditions: for protein uptake after proteinase K pretreatment: 5 ug/ml proteinase K 10 minutes; for protein uptake after taxol pretreatment: 20 uM taxol 30 minutes
Method: The mechanism of basic CPP (TAT and PolyR)-mediated intracellular delivery was also investigated in the same manner as in Example 7-1 and Example 14-2.
(1) RAW 264.7 cells were pretreated with 100 mM EDTA for 3 hours, and then treated with 10 uM of iCP-SOCS3 (HM165S3B) protein for 1 hour, followed by flow cytometry in the same manner as in Example 7-1 (FIG. 51A).
(2) RAW 264.7 cells were pretreated with 5 ug/ml of proteinase K for 10 minutes, and then treated with 10 uM of iCP-SOCS3 (HM165S3B) protein for 1 hour, followed by flow cytometry (FIG. 51B).
(3) RAW 264.7 cells were pretreated with 20 uM taxol for 30 minutes, and then treated with 10 uM of iCP-SOCS3 (HM165S3B) protein for 1 hour, followed by flow cytometry (FIG. 52A).
(4) RAW 264.7 cells were pretreated with 1 mM ATP and 10 uM antimycin singly or in combination for 2 hours, and then treated with 10 uM of iCP-SOCS3 (HM165S3B) protein for 1 hour, followed by flow cytometry (FIG. 52B).
(5) RAW 264.7 cells were left at 4° C. and 37° C. for 1 hour, respectively, and then treated with 10 uM of iCP-SOCS3 (HM165S3B) protein for 1 hour, followed by flow cytometry (FIG. 53).

STAT3 = assay: Cell-to-cell function: phospho-STAT3 in PANC-1 cells seeded with protein-treated RAW 264.7 cells (western blot); type: cell-based; conditions: RAW 264.7 treated with 5 μM protein 2 hour, seeded on PANC-1, 20 ng/ml IFN-γ 15 minutes
Method: For this, RAW 264.7 cells were treated with 5 μM of FITC-labeled HM165S3B, HTS3B for 2 hour and washed with PBS two times. Thereafter, they were seeded on PANC-1 cell, incubated for 2 hours and treated with 20 ng/ml of IFN-γ for 15 minutes, followed by Western blotting in the same manner as in Example 8-1. And Cell-to-cell protein transfer was assessed by flow cytometry.

HepG2 cells = assay: Induction of apoptosis, Annexin V/7-AAD staining; type: cell-based, human; conditions: for induction of apoptosis (Annexin V), HepG2, dose dependence: example 20-1
Method: (§1) AGS cells (gastric carcinoma cell line) (American Type Culture Collection; ATCC) were seeded in a 12-well plate at a density of 1×10^5 cells/well, and then treated with 10 uM of aMTD/SD-fused SOCS3 for 14 hours. Cancer cell death was analyzed by Annexin V analysis. Annexin V/7-Aminoactinomycin D (7-AAD) staining was performed using flow cytometry according to the manufacturer's guidelines (BD Pharmingen, San Diego, Calif., USA). Briefly, cells were washed three times with ice-cold PBS. The cells were then resuspended in 100 μl of binding buffer and incubated with 1 μl of 7-AAD and 1 μl of annexin V-PE for 30 min in the dark at 37° C. Flow cytometric analysis was immediately performed using a guava easyCyte™ 8 Instrument (Merck Millipore, Darmstadt, Germany).
Annexin V/7-Aminoactinomycin D (7-AAD) staining was performed using flow cytometry according to the manufacturer's guidelines (BD Pharmingen, San Diego, Calif., USA). Briefly, 1×10^6 cells were washed three times with ice-cold PBS. The cells were then resuspended in 100 μl of binding buffer and incubated with 1 μl of 7-AAD and 1 μl of […] for 30 min in the dark at 4° C. Flow cytometric analysis was immediately performed using a guava easyCyte™ 8 Instrument (Merck Millipore, Darmstadt, Germany). In this regard, Cisplatin® (IC50: 30 μM) was used as a reference drug.
(§2) The effect of inducing apoptosis of Chang liver cells was measured in the same manner as in Example 11-2, except that as target cell lines, normal Chang liver cells and hepatocellular carcinoma cell lines, Hep3B, HepG2, Huh7, and SK-HEP-1 were used, and as a reference drug, 5-FU® (IC50: 40 μM) was used.

Hep3B cells = assay: Induction of apoptosis, Annexin V/7-AAD staining; type: cell-based, human; conditions: example 20-2
Method: as §1, §2

Huh7 cells = assay: Induction of apoptosis, Annexin V/7-AAD staining; type: cell-based, human; conditions: example 20-2
Method: as §1, §2

SK-Hep-1 cells = assay: Induction of apoptosis, Annexin V/7-AAD staining; type: cell-based, human; conditions: example 20-2
Method: as §1, §2

normal Chang liver cells = assay: Induction of apoptosis, Annexin V/7-AAD staining; type: cell-based, human; conditions: example 20-2
Method: as §1, §2

[1] = then 10 uM protein 1 hour, listed as aMTD165/SD-fused SOCS3 recombinant proteins

B1: HM165S3B: His-tagged recombinant protein of aMTD165, human SOCS3 and solubilization domain B; prototype improved cell-permeable SOCS3 (protein)
chain: MGSSHHHHHHSSGLVPRGSHMALAVPVALAIVPVTHSKFPAAGMETSRPLDTSLRLKTFSSKSEYQLVVNAVRKLQESGFYWSAVTGGEANLLLSAEPAGTFLIRDSSDQRHFFTLSVKTQSGTKNLRIQCEGGSFSLQSDPRSTQPVPRFDCVLKLVHHYMETPPPGAPSFPSPPTEPSSEVPEQPSAQPLPGSPPRRAYYIYSGGEKIPLVLSRPLSSNVATLQHLCRKTVNGHLDSYEKVTQLPGPIREFLDQYDAPLGSMAEQSDKDVKYYTLEEIQKHKDSKSTWVILHHKVYDLTKFLEEHPGGEEVLGEQAGGDATENFEDVGHSTDARELSKTYIIGELHPDDRSKIAKPSETL
modifications: Amino acid sequence of HM165S3B
STAT1
  IFN-γ-induced phosphorylation of STAT1: suppressed IFN-γ-induced phosphorylation of STAT1 and STAT3
TNF-α
  effect on TNF-α secretion: showed the greatest inhibitory effect on cytokine secretion
RAW 264.7 cells; then 10 uM protein 1 hour
  protein uptake after proteinase K pretreatment: essentially unaffected
  protein uptake after taxol pretreatment: essentially unaffected
RAW 264.7 cells; [1]
  protein uptake after proteinase K pretreatment: independent to cell surface receptor
  protein uptake after taxol pretreatment: not due to endocytosis
RAW 264.7 cells; 1 mM ATP and 10 uM antimycin 2 hours, then 10 uM protein 1 hour
  protein uptake after antimycin (ATP depletion): essentially unaffected
RAW 264.7 cells; 100 mM EDTA 3 hours, then 10 uM protein 1 hour
  protein uptake after EDTA pretreatment: blocked
RAW 264.7 cells; 4° C. vs 37° C., 10 uM protein 1 hour
  protein uptake at low temperature: blocked
STAT3
  phospho-STAT3 (cell-to-cell function): reduced
HepG2 cells
  induction of apoptosis (Annexin V), HepG2, dose dependence: dose-dependently efficient inducer of apoptosis
HepG2 cells; listed as iCP-SOCS3
  induction of apoptosis (Annexin V), HepG2, dose dependence: upon treatment of 10 uM or more of iCP-SOCS3, there was no difference in induction of apoptosis
HepG2 cells; example 20-2
  induction of apoptosis (Annexin V), HepG2: considerably efficient inducer of apoptosis
Hep3B cells
  induction of apoptosis (Annexin V), Hep3B: considerably efficient inducer of apoptosis
Huh7 cells
  induction of apoptosis (Annexin V), Huh7: considerably efficient inducer of apoptosis
SK-Hep-1 cells
  induction of apoptosis (Annexin V), SK-HEP-1: considerably efficient inducer of apoptosis
Normal Chang liver cells
  induction of apoptosis (Annexin V), normal Chang liver cells: dose not induced apoptosis in normal cells

Reference: US10385103B2, “Cell-permeable (ICP)-SOCS3 recombinant protein and uses thereof” (CELLIVERY THERAPEUTICS, INC., priority 2014, dated 2019)
